Experiments:
Assay type in all cases: cell-based
[1] = tested on: suspension cell-line WEHI 231.7; assay: Transfection with luciferase plasmid, compound of Example 1b or cationic lipids (Table 4); details: for Luciferase activity: WEHI 231.7, 6 well plates, 2 μg DNA per well, 48 h, background subtracted, DOTAP/DOSPER at cationic lipid/DNA 5/1 (wt/wt)
Description: a) 1.0 mg of the compound obtained in Example 1b) was dissolved in trifluoroethanol and dried in vacuo. The film was then rehydrated with 1 ml of 10 mM Tris maleate buffer pH 6.
b) 10 μl of a plasmid DNA solution (1 mg/ml) were diluted with 190 μl of pure, sterile water. 100 μl of the product obtained in paragraph a) were added and gently mixed. The mixture was then added to cells.
Table 4: Transfection of various cell lines with the compound of Example 1b or cationic lipids. Cells grown in 6 well plates were transfected with a luciferase encoding plasmid (2 μg DNA per well) formulated as described earlier in this Example. Luciferase activity was measured 48 h later. Results are expressed as light units per mg of cell protein. Background was substracted from each measurement.
*)DOTAP (Avanti Polar Lipids Inc.) or DOSPER (BoehringerMannheim)
transfection complexes were prepared according to manufacturer's
instructions and were used at a cationic lipid/DNA ratio of 5/1 (wt/wt).

C2E12 = assay: Transfection with luciferase plasmid, compound of Example 1b/DOPE or cationic lipids (Table 2); details: 48 h after transfection, Example 1b mixed with DOPE per Example 2, DOTAP, Lipofectamine per manufacturer
Description: (§1) a) 1.1 mg of the compound obtained in Example 1b) were solubilized in trifluoroethanol and mixed with 1.1 mg of dioleoylphosphatidyl-ethanolamine (DOPE) in chloroform. The mixture was dried in vacuo and the remaining film rehydrated with 1 ml of 30 mM Tris Cl buffer pH 8.5. […]
(§2) b) Plasmid DNA (10 μg) was diluted in 400 μl of 30 mM Tris Cl buffer pH 8.5. Then […] of the product obtain in paragraph a) were added and gently mixed. The mixture was then added to cells.
(§3) |Transfection of various cell lines with a mixture of the | compound of Example 1b and DOPE or cationic lipids. Cells were | transfected with a luciferase encoding plasmid formulated as described | earlier in this Example. Luciferase activity was measured 48 h after | transfection. Results are expressed as μ Units per well, | ^2) DOTAP and Lipofectamine transfection complexes were prepared
(§4) according to the manufacturer's instructions.

HeLa = assay: as above; details: 48 h after transfection, Example 1b mixed with DOPE per Example 2, DOTAP, Lipofectamine per manufacturer
Description: as §1, §2, §3, §4

CHO K1 = assay: as above; details: 48 h after transfection, Example 1b mixed with DOPE per Example 2, DOTAP, Lipofectamine per manufacturer
Description: as §1, §2, §3, §4

LM = assay: as above; details: 48 h after transfection, Example 1b mixed with DOPE per Example 2, DOTAP, Lipofectamine per manufacturer
Description: as §1, §2, §3, §4

293-EBNA = assay: as above; details: 48 h after transfection, Example 1b mixed with DOPE per Example 2, DOTAP, Lipofectamine per manufacturer
Description: as §1, §2, §3, §4

LM tk- = assay: as above; details: 48 h after transfection, Example 1b mixed with DOPE per Example 2, DOTAP, Lipofectamine per manufacturer
Description: as §1, §2, §3, §4

293 EBNA cells = assay: Transfection of 293 EBNA cells with compound of Example 1b, polyethylenimine or a mixture thereof (Table 5); details: 6 cm dishes, 1 μg DNA per well, 48 h
Description: a) 1.0 mg of the compound obtained in Example 1b) was dissolved in trifluoroethanol and dried in vacuo. The film was then rehydrated with 1 ml of 10 mM Tris maleate buffer pH 6. b) 10 μl of a plasmid DNA solution (1 mg/ml) were diluted with 200 μl of pure, sterile water. 39 μl of the product obtained in paragraph a) and 14 μl of an aqueous polyethylenimine solution (0.45 mg/ml) were added. The mixture was adjusted with water to 300 μl, gently mixed and then added to 292 EBNA cells. […]
c) 10 μl of a plasmid DNA solution (1 mg/ml) were diluted with 200 μl of pure, sterile water. 52 μl of the product obtained in paragraph a) were added and adjusted with water to 300 μl. The mixture was gently mixed and then added to 292 EBNA cells. […]
d) 10 μl of a plasmid DNA solution (1 mg/ml) were diluted with 200 μl of pure, sterile water. 56 μl of an aqueous polyethylenimine solution (0.45 mg/ml) were added and adjusted with water to 300 μl. The mixture was gently mixed and then added to 292 EBNA cells.
Transfection of 293 EBNA cells with the compound of Example
| 1b, polyethylenimine or a mixture thereof. Cells grown in 6 cm dishes | were transfected with a luciferase encoding plasmid (1 μg DNA per […]
formulated as described earlier in this Example. Luciferase activity […]
measured 48 h later. Results are expressed as relative light units per

various cell lines = assay: Toxicity on cells at high doses of DNA and compound (Table 3 experiment); details: formulated according to Example 2
Description: a) 1.1 mg of the compound obtained in Example 1b) were solubilized in trifluoroethanol and mixed with 1.1 mg of dioleoylphosphatidyl-ethanolamine (DOPE) in chloroform. The mixture was dried in vacuo and the remaining film rehydrated with 1 ml of 30 mM Tris Cl buffer pH 8.5.
as §2
(§5) The effect of DNA dose on the transfection efficiency of various cell lines using the compound obtained in Example 1b formulated according to the example 2 is shown in Table 3.

COS-1 = assay: Transfection with β-galactosidase plasmid, increasing DNA doses (Table 3); details: mixture with DOPE, 48 h after transfection
Description: as §1, §2, §5
(§6) |Transfection of various cell lines with a mixture of the | compound of Example lb and DOPE using increasing DNA doses. Cells
(§7) were transfected with a β-galactosidase encoding plasmid formulated […]
(§8) described earlier in this Example. β-galactosidase activity was […]
(§9) 48 h after transfection. Results are expressed as μ Units per well, […]

CV-1 = assay: as above; details: mixture with DOPE, 48 h after transfection
Description: as §1, §2, §5, §6, §7, §8, §9

3T3 = assay: as above; details: mixture with DOPE, 48 h after transfection
Description: as §1, §2, §5, §6, §7, §8, §9

HepG2 = assay: as above; details: mixture with DOPE, 48 h after transfection
Description: as §1, §2, §5, §6, §7, §8, §9

In the case of `CCCCCCCC/C=C\CCCCCCCC(=O)OCC(COC(=O)CCCCCCC/C=C\CCCCCCCC)NC(=O)C(CCCNCCCN)NCCCN` (stereo not drawn) [DOSPER], the Luciferase activity [1] was 0 light units per mg of cell pro.
Work on `CCCCCCCC/C=C\CCCCCCCC(=O)OCC(C[N+](C)(C)C)OC(=O)CCCCCCC/C=C\CCCCCCCC` (stereo not drawn) [DOTAP, reference compound] yielded a Luciferase activity (C2E12) of 156947 μ Units per well, a Luciferase activity (HeLa) of 5409 μ Units per well and a Luciferase activity (CHO K1) of 814133 μ Units per well. The Luciferase activity (LM) was 68614 μ Units per well, the Luciferase activity (293-EBNA) was 706718 μ Units per well and the Luciferase activity (LM tk-) was 594518 μ Units per well. The Luciferase activity [1] was 0 light units per mg of cell pro.
With “compound of formula IIA wherein R^1 and R^2 are oleoyl and R^3 is the residue --(CH2)--CH(NH2)--CO-Ile-Gly-Ala-Val-Leu-Lys-Val-Leu-Thr-Thr-Gly-Leu-Pro-Ala-Leu-Ile-Ser-Trp-Ile-Lys-Arg-Lys-Arg-Gln-Gln-NH2 [Example 1b]” the Luciferase activity (C2E12) was 563827 μ Units per well, the Luciferase activity (HeLa) was 33497 μ Units per well and the Luciferase activity (CHO K1) was 1825019 μ Units per well. For the same molecule, the Luciferase activity (LM) was 31685 μ Units per well, the Luciferase activity (293-EBNA) was 2343658 μ Units per well and the Luciferase activity (LM tk-) was 1712739 μ Units per well. The Luciferase activity (293 EBNA cells) was 3.9 × 10^5 relative light units per dish, the Toxicity on cells (various cell lines) was “without any obvious toxicity” and the Galactosidase activity (COS-1; 0.2 μg DNA) was 16325 μ Units per well. It also gave a Galactosidase activity (COS-1; 0.5 μg DNA) of 20545 μ Units per well, a Galactosidase activity (COS-1; 1 μg DNA) of 16005 μ Units per well and a Galactosidase activity (COS-1; 2 μg DNA) of 15740 μ Units per well. It also gave a Galactosidase activity (CV-1; 0.2 μg DNA) of 2700 μ Units per well, a Galactosidase activity (CV-1; 0.5 μg DNA) of 4440 μ Units per well and a Galactosidase activity (CV-1; 1 μg DNA) of 9775 μ Units per well. For the same molecule, the Galactosidase activity (CV-1; 2 μg DNA) was 20434 μ Units per well, the Galactosidase activity (3T3; 0.2 μg DNA) was 318 μ Units per well and the Galactosidase activity (3T3; 0.5 μg DNA) was 451 μ Units per well. It also gave a Galactosidase activity (3T3; 1 μg DNA) of 1032 μ Units per well, a Galactosidase activity (3T3; 2 μg DNA) of 1301 μ Units per well and a Galactosidase activity (HepG2; 0.2 μg DNA) of 2533 μ Units per well. The Galactosidase activity (HepG2; 0.5 μg DNA) was 7944 μ Units per well, the Galactosidase activity (HepG2; 1 μg DNA) was 8988 μ Units per well and the Galactosidase activity (HepG2; 2 μg DNA) was 13816 μ Units per well. The “Ability to transfect the suspension cell-line WEHI 231.7” value ([1]; compared with DOTAP and DOSPER, same transfection conditions) was “able to transfect the suspension cell-line WEHI 231.7, albeit at a low level”.
